Results: patent publication US9599627B2, “NMR methods for monitoring blood clot formation” (T2 Biosystems, Inc., priority 2011, dated 2017)

Tests used:
fibrin = experiment: Simulated fibrinolysis in healthy patient blood, T2Coagulation T2B versus TEG LY30; assay type: cell-based, human; settings: kaolin runs
Procedure: Five different healthy patient samples were used to test whether T2Coagulation was sensitive to fibrinolysis. Addition of tissue plasminogen activator (TPA) was used to simulate fibrinolysis by adding it at two levels to healthy patient blood. TPA cleaves fibrin as it forms. It was observed that fibrinolysis can be detected within 10 minutes on T2Coagulation, which is less than half the time required for detection on TEG. For all five patients there was a clear difference between healthy and fibrinolytic samples.
There are several potential features that can be used for this correlation. Three that were investigated were the difference between (i) the minimum and maximum T2B values (FIG. 13), (ii) the average of the T2B values over the final 25 minutes of the T2B curves, and (iii) the T2B values at 10 minutes. All had correlations with R^2 values between 0.72 and 0.79. The correlation plots show a higher sensitivity of T2Coagulation for fibrinolysis than TEG. This can be seen by the groupings for the different levels of fibrinolysis in FIG. 13. The healthy patient samples are circled with the solid line. […] The T2Coagulation T2B term can be detected in as little as 10 minutes, which is much faster than the TEG LY30 term can be detected, indicating the utility of the T2Coagulation signal for more rapid measurement of fibrinolysis.

whole blood fibrinolysis = experiment: T2MR whole blood fibrinolysis with spiked TPA; assay type: cell-based, human; settings: TPA 100 U/mL, blood from a healthy donor
Procedure: The T2MR surface is also sensitive to whole blood fibrinolysis. To assess this, healthy donor samples were spiked with tissue plasminogen activator (TPA).
TPA was added at 100 U/mL to blood from a healthy donor. In the absence of TPA (see FIG. 27a) two stable peaks form at the expected clotting time. With 100 U/mL of TPA (see FIG. 27b) the clot forms at the expected time, but proves to be unstable after 20-30 minutes. Both the instability and the distance between the final T2 peaks indicate sensitivity to fibrinolysis induced by the presence of TPA.
The T2MR effect on fibrinolysis was expressed in AU values (arbitrary units; see FIG. 27c) obtained by calculating the difference between the maximum and minimum T2 value observed for the clot signal (or T2B) in the T2 time curve.
Fibrinolysis was monitored by T2 magnetic resonance (T2MR) in five patient blood samples with and without the addition of TPA (100 U/mL) (FIG. 27c). […] All other samples required addition of TPA to induce fibrinolysis, as confirmed by the reference method.

human platelets = experiment: T2 relaxation 3D plots of clotting whole blood containing abciximab; assay type: cell-based
Procedure: T2 relaxation rate data was collected from CK blood samples drawn from healthy patients. For each sample, a series of T2 decay curves were measured over a period of 50 minutes. The decay curves were each processed using an inverse Laplace transform (ILT CONTIN) to provide an array of curves showing T2 intensity as a function of T2 time. […] FIG. 20 illustrates the 3D data sets for patient samples 29328 and 29350 collected on a Bruker minispec. […] At a time between 5 minutes and 30 minutes, the single water population diverged into two significant water populations. These two water populations correspond to the two components of the clot, i.e., the retracted clot and the serum surrounding the retracted clot. […] For some samples these two peaks were not entirely resolved. […]
In a first experiment, four aliquots of patient sample 29488 were prepared with different concentrations of abciximab (0, 2, 4, and 8 μg/mL) prior to initiation of the clotting process. The T2 relaxation times for the four samples were measuring over the course of clot formation and the corresponding 3D plots were determined using the technique described in Example 13. […] This physical change is evidenced and quantified in the corresponding 3D plots (FIG. 21), showing fast exchange of water within the uniform sample at the highest concentration of abciximab.

whole blood sample = experiment: TEG clot strength (MA) of whole blood samples containing abciximab; assay type: cell-based, human; settings: patient sample 29494
Procedure: The TEG Hemostasis Analyzer provides quantitative and qualitative measurements of the physical properties of a clot (Samara et al., Thromb. Res. 115:89-94, 2005). In the present example, the maximum amplitude (MA) and the coagulation time (R) were measured for the thrombin generated clot sample. MA is an indicator of the viscoelasticity of clot formation or clot strength and is dependent on platelet aggregation and fibrin formation and polymerization. R is the period of time of latency until initial fibrin formation and has been correlated with the velocity of thrombin generation.
The clotting of a whole blood sample was perturbed using the antithrombotic agent abciximab (ReoPro®). Abciximab is the Fab fragment of a human-murine monoclonal antibody that binds to the Ith/IIIa receptor of human platelets and inhibits platelet aggregation. Abciximab serves to inhibit the retraction of a clot during the clotting process.
Samples containing abciximab were prepared according to the following procedure and referenced in the application and Figures by a number corresponding to the concentration of abciximab in units of μg/mL.
1. Blood was drawn from normal donors into six citrate tubes. Normal donors must not have taken aspirin or any anti-platelet drug in the past two weeks.
2. The six tubes of blood were pooled and mixed gently by inversion eight to ten times. Samples were used within two hours of collection.
3. A abciximab solution (10 mg/5 mL) was diluted at a ratio of 1:4 using saline as a diluent to form “solution 1.”
4. The blood was spiked with solution 1 and saline according to Table 5
5. […]
In a second experiment, five aliquots of patient sample 29494 were prepared with different concentrations (0, 2, 4, 8, and 0 μg/mL) of abciximab prior to initiation of the clotting process. The T2 relaxations times for the samples were measured in series, with each set of measurements lasting approximately 50 min. […] The corresponding TEG-determined MA values for these samples was 60.7, 61.4, 30.4, and 22.0, respectively.

B1: Cathflo®: recombinant alteplase manufactured by Genentech (protein, UniProt P00750 36-562, looked up)
Tissue-type plasminogen …: SYQVICRDEKTQMIYQQHQSWLRPVLRSNRVEYCWCNSGRAQCHSVPVKSCSEPRCFNGGTCQQALYFSDFVCQCPEGFAGKCCEIDTRATCYEDQGISYRGTWSTAESGAECTNWNSSALAQKPYSGRRPDAIRLGLGNHNYCRNPDRDSKPWCYVFKAGKYSSEFCSTPACSEGNSDCYFGNGSAYRGTHSLTESGASCLPWNSMILIGKVYTAQNPSAQALGLGKHNYCRNPDGDAKPWCHVLKNRRLTWEYCDVPSCSTCGLRQYSQPQFRIKGGLFADIASHPWQAAIFAKHRRSPGERFLCGGILISSCWILSAAHCFQERFPPHHLTVILGRTYRVVPGEEEQKFEVEKYIVHKEFDDDTYDNDIALLQLKSDSSRCAQESSVVRTVCLPPADLQLPDWTECELSGYGKHEALSPFYSERLKEAHVRLYPSSRCTSQHLLNRTVTDNMLCAGDTRSGGPQANLHDACQGDSGGPLVCLNDGRMTLVGIISWGLGCGQKDVPGVYTKVTNYLDWIRDNMRP
modifications: alteplase
notes: recombinant alteplase manufactured by Genentech
degree of fibrinolysis of samples (fibrin; 60 ng/mL Cathflo in healthy patient blood): partially fibrinolytic | degree of fibrinolysis of samples (fibrin; 118 ng/mL Cathflo in healthy patient blood): fully fibrinolytic

B2: tissue plasminogen activator (protein, UniProt P00750 36-562, looked up)
Tissue-type plasminogen …: B1 Tissue-type plasminogen …
notes: cleaves fibrin as it forms
time after which the clot proves to be unstable (whole blood fibrinolysis): 20 to 30 min

B3: abciximab (antibody, chains of the INN, looked up, V domains shown)
VH: EVQLQQSGTVLARPGASVKMSCEASGYTFTNYWMHWVKQRPGQGLEWIGAIYPGNSDTSYIQKFKGKAKLTAVTSTTSVYMELSSLTNEDSAVYYCTLYDGYYVFAYWGQGTLVTVSA
VL: EIVLTQSPVTLSVTPGDSVSLSCRASRDISNNLHWFQQTSHESPRLLIKYASQSMSGIPSRFSGSGSGTDFTLSINSVETEDFGMYFCQQTNSWPYTFGGGTKLEIK
modifications: Fab
effect on clot associated T2 signal intensity (human platelets; 8 μg/mL Reopro, T2reader, versus native sample): reduces the signal intensity of the clot associated signal | phases (retracted clot and serum water populations) visible within the clot (human platelets; highest concentration of abciximab (8 μg/mL), patient sample 29488, Bruker minispec): no longer two phases visible within the clot | TEG-determined MA value (whole blood sample; abciximab 2 μg/mL): 61.4 | TEG-determined MA value (whole blood sample; abciximab 4 μg/mL): 30.4 | TEG-determined MA value (whole blood sample; abciximab 8 μg/mL): 22.0
